# Results published in patent US9499613B2, “Notch1 receptor binding agents and methods of use thereof” (OncoMed Pharmaceuticals, Inc., priority 2008, dated 2016).
# “Also recorded” adds a separate entry of the source.
# Columns and labels:
# [1] = tested on: C8 colon tumor cells; test: C8 colon tumor xenograft, treatment of established tumors; format: in vivo, NOD/SCID mice; settings: C8 colon tumors ~210 mm^3 at start, 10 mg/kg i.p. twice a week
# Experimental: Tumor cells from a patient sample (solid tumor biopsy or pleural effusion) that have been passaged as a xenograft in mice were prepared for repassaging into experimental animals. Tumor tissue was removed, cut up into small pieces, minced completely using sterile blades, and single cell suspensions obtained by enzymatic digestion and mechanical disruption. Dissociated tumor cells were then injected subcutaneously into the mammary fat pads, for breast tumors, or into the flank, for non-breast tumors, of NOD/SCID mice to elicit tumor growth. In certain embodiments, ESA+, CD44+, CD24−/low, Lin− tumorigenic tumor cells are isolated as described in detail above and injected.
# In certain embodiments, freshly isolated C8 colon tumor cells (225 cells per animal) were implanted subcutaneously into NOD/SCID mice. Following tumor cell injection, animals were monitored for tumor growth. Tumors were allowed to grow for 48 days until they reached an average size of approximately 210 mm^3 and randomized into two groups (n=10 per group). The animals were treated with either control antibody or antibody that binds to the membrane proximal region of the extracellular domain of human Notch1, 52M51, (10 mg/kg) dosed i.p. twice a week. Tumor size was assessed on days 55, 57, and 62.
# [2] = target: T1, Notch1 (Homo sapiens, UniProt P46531); test: Western blot of Notch1 ICD formation after DLL4 stimulation of Notch1-Hela cells; format: cell-based; set-up: expressed in transfected cells; host or cells: HeLa (Notch1-Hela); settings: DLL4-fc coated wells, five hours
# T1 sequence (P46531 19-2555): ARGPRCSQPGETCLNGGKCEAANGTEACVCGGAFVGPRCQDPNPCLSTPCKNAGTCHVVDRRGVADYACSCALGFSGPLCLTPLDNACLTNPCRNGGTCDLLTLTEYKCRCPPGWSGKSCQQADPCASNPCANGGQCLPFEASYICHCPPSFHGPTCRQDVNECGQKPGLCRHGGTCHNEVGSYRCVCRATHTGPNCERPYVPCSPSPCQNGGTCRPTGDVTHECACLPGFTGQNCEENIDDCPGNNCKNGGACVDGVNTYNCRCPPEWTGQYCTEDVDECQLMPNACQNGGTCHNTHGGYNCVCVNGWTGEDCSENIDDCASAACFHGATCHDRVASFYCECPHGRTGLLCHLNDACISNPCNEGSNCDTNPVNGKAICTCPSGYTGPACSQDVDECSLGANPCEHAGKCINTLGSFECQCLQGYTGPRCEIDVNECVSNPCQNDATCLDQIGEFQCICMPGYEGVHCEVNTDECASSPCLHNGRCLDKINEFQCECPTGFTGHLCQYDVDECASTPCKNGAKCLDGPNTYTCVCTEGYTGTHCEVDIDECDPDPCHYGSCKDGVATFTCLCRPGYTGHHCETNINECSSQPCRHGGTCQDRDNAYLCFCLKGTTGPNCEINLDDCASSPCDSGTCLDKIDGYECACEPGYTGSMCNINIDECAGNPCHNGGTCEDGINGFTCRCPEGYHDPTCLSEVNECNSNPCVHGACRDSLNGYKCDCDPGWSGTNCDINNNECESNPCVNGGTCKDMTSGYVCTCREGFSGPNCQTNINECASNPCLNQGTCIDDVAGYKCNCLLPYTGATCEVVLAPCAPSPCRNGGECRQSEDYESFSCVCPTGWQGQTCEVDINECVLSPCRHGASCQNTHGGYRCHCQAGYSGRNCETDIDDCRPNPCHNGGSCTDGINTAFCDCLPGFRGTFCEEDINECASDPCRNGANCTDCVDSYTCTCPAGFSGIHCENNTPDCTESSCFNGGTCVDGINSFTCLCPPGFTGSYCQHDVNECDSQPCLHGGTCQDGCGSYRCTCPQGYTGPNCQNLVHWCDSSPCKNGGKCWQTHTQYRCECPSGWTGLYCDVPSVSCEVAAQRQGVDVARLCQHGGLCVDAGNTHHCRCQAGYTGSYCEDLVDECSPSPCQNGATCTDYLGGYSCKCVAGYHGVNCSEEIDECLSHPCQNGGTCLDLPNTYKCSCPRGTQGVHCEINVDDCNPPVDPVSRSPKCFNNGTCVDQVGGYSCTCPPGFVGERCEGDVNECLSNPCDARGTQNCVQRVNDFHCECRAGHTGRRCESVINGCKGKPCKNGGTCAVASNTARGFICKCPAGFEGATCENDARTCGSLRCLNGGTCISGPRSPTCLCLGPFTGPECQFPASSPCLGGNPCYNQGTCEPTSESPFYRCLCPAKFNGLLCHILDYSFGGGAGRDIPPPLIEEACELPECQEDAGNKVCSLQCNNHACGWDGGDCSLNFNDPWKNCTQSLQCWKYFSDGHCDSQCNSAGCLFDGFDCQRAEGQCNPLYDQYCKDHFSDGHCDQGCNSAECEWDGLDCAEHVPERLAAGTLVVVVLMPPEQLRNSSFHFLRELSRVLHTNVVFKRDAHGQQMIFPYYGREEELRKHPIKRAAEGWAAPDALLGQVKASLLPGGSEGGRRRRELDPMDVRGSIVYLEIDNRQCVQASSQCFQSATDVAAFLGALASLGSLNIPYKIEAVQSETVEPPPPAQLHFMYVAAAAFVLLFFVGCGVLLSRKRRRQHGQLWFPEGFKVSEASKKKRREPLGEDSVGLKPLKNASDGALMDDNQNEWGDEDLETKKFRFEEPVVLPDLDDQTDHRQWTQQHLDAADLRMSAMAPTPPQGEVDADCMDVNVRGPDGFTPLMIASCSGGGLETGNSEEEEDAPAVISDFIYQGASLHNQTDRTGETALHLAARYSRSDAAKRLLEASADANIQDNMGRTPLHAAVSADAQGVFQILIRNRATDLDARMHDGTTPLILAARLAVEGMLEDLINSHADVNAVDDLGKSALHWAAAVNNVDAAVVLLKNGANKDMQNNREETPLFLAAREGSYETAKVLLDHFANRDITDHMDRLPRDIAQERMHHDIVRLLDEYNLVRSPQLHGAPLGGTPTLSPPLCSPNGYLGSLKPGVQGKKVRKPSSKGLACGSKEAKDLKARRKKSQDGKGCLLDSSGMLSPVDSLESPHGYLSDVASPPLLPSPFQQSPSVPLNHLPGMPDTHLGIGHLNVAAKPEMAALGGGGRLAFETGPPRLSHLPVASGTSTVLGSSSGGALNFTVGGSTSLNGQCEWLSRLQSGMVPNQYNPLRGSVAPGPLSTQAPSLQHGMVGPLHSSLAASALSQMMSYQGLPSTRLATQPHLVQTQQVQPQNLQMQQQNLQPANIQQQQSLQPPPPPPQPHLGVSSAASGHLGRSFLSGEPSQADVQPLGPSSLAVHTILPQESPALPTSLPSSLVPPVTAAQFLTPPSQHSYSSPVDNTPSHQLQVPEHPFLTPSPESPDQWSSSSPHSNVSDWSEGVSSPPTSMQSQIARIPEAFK
# Experimental: Cleavage of Notch receptors by furin, ADAM, and gamma-secretase results in formation of the Notch intracellular domain (ICD) that then triggers downstream Notch signaling in the nucleus. In certain embodiments, the ability of Notch1 receptor antibodies to block ligand-mediated receptor activation was determined by Western blot analysis. Notch1-Hela cells were grown in suspension culture in 293-SMII media (Gibco). Cultured cells were transferred to 96-well plates in which select wells had been pre-coated with human DLL4-fc fusion protein ([…]) in DMEM plus 2% FBS and 1 μM MG132 (Calbiochem). Antibodies to generated against a membrane proximal region of the extracellular domain of human Notch1 were added to the cell culture medium, and cells were incubated at 37° C. for five hours. Wells were then aspirated and the cells resuspended in 2×SDS running buffer. Samples were sonicated at room temperature, and then subjected to SDS-PAGE and western blot analysis using an antibody specific for the cleaved Notch1 ICD according to the manufacturer's recommendations (Cell Signaling Technology).
# [3] = target: T1, Notch1; test: ELISA of conditioned media from cotransfected HEK 293 cells for Notch1 binding activity; settings: candidate humanized chains cotransfected into HEK 293 cells
# Experimental: The functionality of each candidate variant humanized heavy and light chain was tested by cotransfection into mammalian cells. Each of the nine candidate humanized 52M51 heavy chains described above was cotransfected into HEK 293 cells with the murine 52M51 light chain cDNA, and conditioned media was assayed by ELISA for Notch1 binding activity. […] This variant “52M51-H4” (SEQ ID NO:22) contains, in addition to murine CDRs, variation at 3 framework positions within the Vh framework, Kabat positions 20, 48, and 71 in comparison with an example human framework (e.g. IGHV1-24). The 52M51-H4 humanized heavy chain was then cotransfected into HEK293 cells with each of the eight candidate humanized light chains, and conditioned media was again assayed for antigen binding by ELISA. […] Variant 52M51-L3 contains, in addition to murine CDRs, variation at 1 framework position at Kabat position 49 in comparison to an example human framework (e.g., IGLV7-46). Two humanized variant antibodies, 52M51H4L3 and 52M51H4L4, were developed. 52M51H4L3, as encoded by DNA deposited with the ATCC, under the conditions of the Budapest Treaty on Oct. 15, 2008, and assigned designation number PTA-9549.
# [4] = target: T1, Notch1; test: hDLL4-fc-induced Notch reporter luciferase assay in Notch1-Hela cells; format: cell-based; set-up: expressed in transfected cells; host or cells: HeLa (Notch1-Hela); settings: plates coated with 200 ng/well hDLL4-fc, 48 hours after transfection
# Experimental: In certain embodiments, the ability of Notch1 receptor antibodies to block ligand-mediated Notch signaling was determined. In certain embodiments, HeLa cells engineered to overexpress Notch1 (Notch1-Hela) cultured in DMEM supplemented with antibiotics and 10% FCS were co-transfected with 1) pGL4 8×CBS firefly luciferase containing a Notch responsive promoter upstream of a firefly luciferase reporter gene to measure Notch signaling levels in response to DLL4 ligand; and 2) a Renilla luciferase reporter (Promega; Madison, Wis.) as an internal control for transfection efficiency. Transfected cells were added to cultures plates coated overnight with 200 ng/well of hDLL4-fc protein, and antibodies to Notch1 were then added to the cell culture medium. Forty-eight hours following transfection, luciferase levels were measured using a dual luciferase assay kit (Promega; Madison, Wis.) with firefly luciferase activity normalized to Renilla luciferase activity. The ability of antibodies to inhibit Notch1 pathway activation was thus determined.
molecule,measurement,setting,value
"52M51: murine monoclonal antibody to membrane proximal region of human Notch1; hybridoma ATCC PTA-9405; heavy SEQ ID NO:10, light SEQ ID NO:4 (antibody, Synthetic heavy chain of antibody 52M51; Synthetic light chain of antibody 52M51) heavy: MEWTWVFLFLLSVTAGVHSQVQLQQSGAELMKPGASVKISCKAAGYTMRGYWIEWIKQRPGHGLEWIGQILPGTGRTNYNEKFKGKATFTADTSSNTANMQLSSLTSEDSAVYYCARFDGNYGYYAMDYWGQGSSVTVSSAKTTPPSVYPLAPGSAAQTNSMVTLGCLVKGYFPEPVTVTWNSGSLSSGVHTFPAVLQSDLYTLSSSVTVPSSPRPSETVTCNVAHPASSTKVDKKIVPRDCGCKPCICTVPEVSSVFIFPPKPKDVLTITLTPKVTCVVVDISKDDPEVQFSWFVDDVEVHTAQTQPREEQFNSTFRSVSELPIMHQDWLNGKEFKCRVNSAAFPAPIEKTISKTKGRPKAPQVYTIPPPKEQMAKDKVSLTCMITDFFPEDITVEWQWNGQPAENYKNTQPIMNTNGSYFVYSKLNVQKSNWEAGNTFTCSVLHEGLHNHHTEKSLSHSPGK light: MAWISLILSLLALSSGAISQAVVTQESALTTSPGETVTLTCRSSTGAVTTSNYANWVQEKPDHLFTGLIGGTNNRAPGVPARFSGSLIGDKAALTITGAQTEDEAIYFCALWYSNHWVFGGGTKLTVLGQPKSSPSVTLFPPSSEELETNKATLVCTITDFYPGVVTVDWKVDGTPVTQGMETTQPSKQSNNKYMASSYLTLTARAWERHSSYSCQVTHEGHTVEKSLSRADCS",tumor growth compared to control antibody,[1],statistically significant (p=0.0006) inhibition of tumor growth; also recorded: significantly (p=0.0006) inhibited tumor growth
same,Notch1 ICD formation after ligand stimulation,[2],significantly inhibited the generation of ICD; also recorded: reduce ICD formation to background levels
"52M51-H4: humanized 52M51 heavy chain variant (SEQ ID NO:22), tested with the murine 52M51 light chain (antibody) heavy: QVQLVQSGAEVKKPGASVKISCKVSGYTLRGYWIEWVRQAPGKGLEWIGQILPGTGRTNYNEKFKGRVTMTADTSTDTAYMELSSLRSEDTAVYYCARFDGNYGYYAMDYWGQGTTVTVSSASTKGPSVFPLAPCSRSTSESTAALGCLVKDYFPEPVTVSWNSGALTSGVHTFPAVLQSSGLYSLSSVVTVPSSNFGTQTYTCNVDHKPSNTKVDKTVERKCCVECPPCPAPPVAGPSVFLFPPKPKDTLMISRTPEVTCVVVDVSHEDPEVQFNWYVDGVEVHNAKTKPREEQFNSTFRVVSVLTVVHQDWLNGKEYKCKVSNKGLPAPIEKTISKTKGQPREPQVYTLPPSREEMTKNQVSLTCLVKGFYPSDIAVEWESNGQPENNYKTTPPMLDSDGSFFLYSKLTVDKSRWQQGNVFSCSVMHEALHNHYTQKSLSLSPGK light: QAVVTQESALTTSPGETVTLTCRSSTGAVTTSNYANWVQEKPDHLFTGLIGGTNNRAPGVPARFSGSLIGDKAALTITGAQTEDEAIYFCALWYSNHWVFGGGTKLTVLGQPKSSPSVTLFPPSSEELETNKATLVCTITDFYPGVVTVDWKVDGTPVTQGMETTQPSKQSNNKYMASSYLTLTARAWERHSSYSCQVTHEGHTVEKSLSRADCS",Notch1 / antigen binding by ELISA,[3],most robust binding
"52M51H4L3: humanized variant of 52M51, heavy chain H4 and light chain L3; DNA deposited as ATCC PTA-9549 (antibody) heavy: QVQLVQSGAEVKKPGASVKISCKVSGYTLRGYWIEWVRQAPGKGLEWIGQILPGTGRTNYNEKFKGRVTMTADTSTDTAYMELSSLRSEDTAVYYCARFDGNYGYYAMDYWGQGTTVTVSSASTKGPSVFPLAPCSRSTSESTAALGCLVKDYFPEPVTVSWNSGALTSGVHTFPAVLQSSGLYSLSSVVTVPSSNFGTQTYTCNVDHKPSNTKVDKTVERKCCVECPPCPAPPVAGPSVFLFPPKPKDTLMISRTPEVTCVVVDVSHEDPEVQFNWYVDGVEVHNAKTKPREEQFNSTFRVVSVLTVVHQDWLNGKEYKCKVSNKGLPAPIEKTISKTKGQPREPQVYTLPPSREEMTKNQVSLTCLVKGFYPSDIAVEWESNGQPENNYKTTPPMLDSDGSFFLYSKLTVDKSRWQQGNVFSCSVMHEALHNHYTQKSLSLSPGK light: SGVDSQAVVTQEPSLTVSPGGTVTLTCRSSTGAVTTSNYANWFQQKPGQAPRTLIGGTNNRAPGVPARFSGSLLGGKAALTLSGAQPEDEAEYYCALWYSNHWVFGGGTKLTVLGQPKAAPSVTLFPPSSEELQANKATLVCLVSDFYPGAVTVAWKADGSPVKVGVETTKPSKQSNNKYAASSYLSLTPEQWKSHRSYSCRVTHEGSTVEKTVAPAECS",Notch signaling (luciferase activity),[4],significantly inhibited Notch signaling
